For one molecule, fold decrease in binding against human IGF-1R and Biacore Relative RUmax results are on record in patent US20090092614A1.

For test [1], the target named is murine IGF-1R(1-903)-Fc (murine; human) (UniProt Q60751). In words: SPR.
For test [2] the target is unchanged. In words: SPR, Fab over receptor-Fc captured on M13-C06 surface.

Sequence of murine IGF-1R(1-903)-Fc (murine; human) (Q60751 31-933 limits assumed, form in doubt): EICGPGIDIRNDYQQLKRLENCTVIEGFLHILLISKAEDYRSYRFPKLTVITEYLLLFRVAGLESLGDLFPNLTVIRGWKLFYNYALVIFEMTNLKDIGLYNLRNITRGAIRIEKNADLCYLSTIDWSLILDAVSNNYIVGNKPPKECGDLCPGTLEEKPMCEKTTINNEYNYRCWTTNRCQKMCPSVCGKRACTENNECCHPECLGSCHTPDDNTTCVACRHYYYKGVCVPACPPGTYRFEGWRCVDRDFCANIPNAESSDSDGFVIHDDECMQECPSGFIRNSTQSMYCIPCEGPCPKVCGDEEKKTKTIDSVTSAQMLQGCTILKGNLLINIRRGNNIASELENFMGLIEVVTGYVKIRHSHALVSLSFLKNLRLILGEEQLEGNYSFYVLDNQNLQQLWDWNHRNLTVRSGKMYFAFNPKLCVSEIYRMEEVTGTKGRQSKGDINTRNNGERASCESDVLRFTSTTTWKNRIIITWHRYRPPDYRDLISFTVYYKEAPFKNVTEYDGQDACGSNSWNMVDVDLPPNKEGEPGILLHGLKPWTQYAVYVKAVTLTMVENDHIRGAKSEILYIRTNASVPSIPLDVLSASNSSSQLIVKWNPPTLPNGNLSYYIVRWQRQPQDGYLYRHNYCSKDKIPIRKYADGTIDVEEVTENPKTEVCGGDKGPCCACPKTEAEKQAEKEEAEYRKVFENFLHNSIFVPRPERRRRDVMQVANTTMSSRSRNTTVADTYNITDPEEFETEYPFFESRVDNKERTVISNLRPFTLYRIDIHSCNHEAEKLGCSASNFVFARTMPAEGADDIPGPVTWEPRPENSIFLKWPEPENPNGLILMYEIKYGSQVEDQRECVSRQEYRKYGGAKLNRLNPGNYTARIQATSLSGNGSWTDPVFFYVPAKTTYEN

B1: M13-C06 Fab (Fab, V domains shown)
VH: EVQLLESGGGLVQPGGSLRLSCAASGFTFSIYRMQWVRQAPGKGLEWVSGISPSGGTTWYADSVKGRFTISRDNSKNTLYLQMNSLRAEDTAVYYCARWSGGSGYAFDIWGQGTMVTVSS
VL: DIQMTQSPLSLSASVGDRVTITCQASRDIRNYLNWYQQKPGKAPKLLIYDASSLQTGVPSRFGGSGSGTDFSFTIGSLQPEDIATYYCQQFDSLPHTFGQGTKLEIK
In test [1], B1 showed a fold decrease in binding against human IGF-1R of 100 fold. The Biacore Relative RUmax in test [2] came to 0.
